Measurements as given in PMC4067742, “Direct Observations of Amyloid β Self-Assembly in Live Cells Provide Insights into Differences in the Kinetics of Aβ(1–40) and Aβ(1–42) Aggregation” (Chemistry & Biology, 2014).

Assay: Fluorescence lifetime imaging (FLIM) of amyloid fibril formation in vitro
Assay type: physicochemical
Conditions: for fluorescence lifetime of larger aggregates deposited on the coverslip: FLIM, 'often in the range of'; for mean fluorescence lifetime, monomeric peptide: beginning of time course / before trypsin
Experimental: We first examined whether a Hilyte Fluor 488 (HF488) dye attached to the N termini of Aβ(1–40) and Aβ(1–42) could act as a reporter of amyloid formation by monitoring how the fluorescence intensity of the dye changes as fibril formation occurs in vitro for each of the two Aβ isoforms. The appearance of fibrillar species was identified by means of dot blot experiments using the conformation-specific antibody LOC ([Kayed et al., 2007]), and the HF488 fluorescence intensity was measured in parallel (Figure 1A; Figure S1 available online). […] This small difference, however, could result from the fact that LOC recognizes fibrillar oligomers as well as amyloid fibrils, whereas the fluorescence quenching is likely to be associated predominately with amyloid fibrils. We also confirmed the formation of β sheet structure by measurement of circular dichroism spectra at the beginning and end of the time course of the experiment (Figure 1B). Next, we used FLIM to analyze these samples collected at the beginning and end of the time course of the experiment. The fluorescence lifetimes in each pixel of these images were obtained by fitting monoexponential decay functions to the observed time-resolved fluorescence decays, and the data and images are shown in Figures 1C and 1D.
All in vitro experiments were performed at a peptide concentration of 5 μM in 50 mM sodium phosphate buffer at pH 7.4. Aggregation kinetics were monitored by steady-state fluorescence in a FLUOstar Optima microplate reader (BMG Labtech) and sealed black Costar half-area, 96-well plates (Corning Life Sciences). Data were recorded at 5-min intervals using a 480-nm bandpass filter for excitation and a 520-nm bandpass filter for emission. Orbital shaking (300 rpm, 10 s) was carried out prior to each recording to ensure that each sample was homogenous. Sample aliquots for dot blot analysis were taken at the indicated time points and immediately flash-frozen in liquid nitrogen. These aliquots were thawed by dilution into phosphate buffer to a total volume of 25 μl and immediately blotted onto a nitrocellulose membrane using a Bio-Rad dot blot apparatus. The membrane was blocked with 5% (w/v) dry milk and 0.1% Triton X-100 in PBS and stained with LOC as the primary antibody and an Alexa Fluor 647-labeled anti-rabbit antibody as the secondary antibody (Life Technologies). The blots were imaged on a Typhoon 9400 scanner (GE Healthcare) using the 633-nm laser line for excitation. Densitometric analysis of the blots was carried out using ImageJ. ([Schneider et al., 2012]). Aβ samples for in vitro fluorescence lifetime imaging were placed in a glass-bottomed tissue culture dish (MatTek) and sealed with a coverslip and nail varnish to avoid evaporation.
All FLIM experiments were carried out using HF488-labeled Aβ peptides, and images were recorded by time-correlated single photon counting (TCSPC) using a confocal microscopy platform built on an Olympus Fluoview FV300 confocal scan unit. A pulsed supercontinuum source (SC 450, Fianium) was used for excitation, emitting a train of sub-10-picosecond pulses at 40 MHz repetition rate. The output beam was collimated and passed through a hot mirror assembly to remove infrared components at wavelengths greater than 700 nm. The visible portion of the spectrum was passed through an acousto-optic tunable filter (AOTFnC-VIS, AA Opto-Electronic) whose radio frequency modulator was driven by software developed using LabVIEW (National Instruments). The excitation wavelength was set to 480 nm. The excitation beam was reflected onto the sample with a 20/80 broad bandwidth coated beam splitter so that 20% of the excitation light passed on to the sample and 80% of the fluorescence signal was reflected toward the confocal pinhole. The fluorescence light was passed through a 515-nm Semrock long-pass filter (Laser 2000) and passed onto a fast photomultiplier tube (PMC-100, Becker & Hickl). Lifetimes were recorded using TCSPC circuitry (SPC-830, Becker & Hickl). […]

[1] = 5 μM peptide in 50 mM sodium phosphate buffer pH 7.4
[2] = 5 μM peptide in 50 mM sodium phosphate buffer pH 7.4, FLIM (TCSPC), monoexponential fit, mean ± SD

Substance | lag phase of fibril formation in vitro (decrease in fluorescence lifetime) (5 μM peptide in 50 mM sodium phosphate buffer pH 7.4, droplet on FLIM microscope stage, sigmoidal decrease (Figure S2A)) | fluorescence lifetime of larger aggregates deposited on the coverslip [1] | mean fluorescence lifetime, monomeric peptide [2] | mean fluorescence lifetime, solutions containing fibrillar peptide (aggregation read-out, 5 μM peptide in 50 mM sodium phosphate buffer pH 7.4, end of time course, FLIM (TCSPC), monoexponential fit, mean ± SD)
^HF488Aβ(1–40): Synthetic 40-residue amyloid β peptide labeled at the N terminus with Hilyte Fluor 488, purchased from Anaspec | approximately 2.5 hr | 2.5–3.0 ns | 3.7 ± 0.1 ns | –
^HF488Aβ(1–42): Synthetic 42-residue amyloid β peptide labeled at the N terminus with Hilyte Fluor 488, purchased from Anaspec | – | 2.5–3.0 ns | 3.7 ± 0.05 ns | 3.3 ± 0.1 ns
